Holding throughout (assay): SEC
Background: Size exclusion chromatography separates by hydrodynamic size, large species first.

Assay [1] addresses human CD81 large extracellular loop domain, mutant E188Q (human).
The target in assay [2] is human CD81 large extracellular loop domain, mutant D139N (human).
The target in assay [3] is wild-type human CD81 large extracellular loop domain (wt-hCD81LEL) (human).

Turning to “human CD81 large extracellular loop domain, mutant E188Q (domain or fragment)”, in assay [1], the stoichiometry N (as a rule, a count of units in the complex or per binding partner) turned out to be 2.
In turn, “human CD81 large extracellular loop domain, mutant D139N (domain or fragment)” registered a stoichiometry N in assay [2] of 2.
Regarding “wild-type human CD81 large extracellular loop domain (wt-hCD81LEL) (domain or fragment)”, the stoichiometry N in assay [3] turned out to be 2.

These data come from article doi:10.1101/2022.03.21.485124.
